Measured values from publication PMC7556464, “4CMenB vaccine induces elite cross-protective human antibodies that compete with human factor H for binding to meningococcal fHbp” (PLoS Pathogens, 2020).
Numbering of substitutions follows the chain as printed.

Key:
[1] = molecular target: T1, factor H binding protein (fHbp) variant 2.16, recombinant (Neisseria meningitidis 961-5945, UniProt Q6VS19, strain); test: SPR; settings: both partners purified
T1 construct: also called fHbp v2.16; fHbp v2; source: E. coli BL21(DE3), purified (Ni-NTA, SEC when necessary)

[2] = molecular target: T2, factor H binding protein (fHbp) variant 1.1, recombinant (Neisseria meningitidis MC58, fHbp v1.1); test: SPR; settings: both partners purified
T2 construct: also called fHbp v1.1; fHbp v1; source: E. coli BL21(DE3), purified (Ni-NTA, SEC when necessary); not shown: His6, C-terminal, kept
T2 chain: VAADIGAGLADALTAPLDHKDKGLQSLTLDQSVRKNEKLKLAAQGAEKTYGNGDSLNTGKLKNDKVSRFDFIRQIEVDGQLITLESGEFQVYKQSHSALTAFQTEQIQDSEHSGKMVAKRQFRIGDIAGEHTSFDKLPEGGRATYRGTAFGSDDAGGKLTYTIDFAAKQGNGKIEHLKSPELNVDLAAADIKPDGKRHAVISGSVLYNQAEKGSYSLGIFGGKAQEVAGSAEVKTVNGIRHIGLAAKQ

[3] = molecular target: T3, factor H binding protein (fHbp) variant 3.28, recombinant (Neisseria meningitidis M1239, fHbp v3.28, UniProt Q19KF7, strain); test: SPR; settings: both partners purified
T3 construct: also called fHbp v3.28; fHbp v3; source: E. coli BL21(DE3), purified (Ni-NTA, SEC when necessary)

[4] = molecular target: T4, native fHbp v2.16 on live N. meningitidis strain UK104 (M08-240104) (Neisseria meningitidis, UniProt Q6VS19); test: flow cytometry on cells; live meningococci (MC58, UK104, UK320) in mid-log phase incubated with mAbs at 10 ug/ml; detected with FITC anti-human IgG; settings: one partner purified
T4 construct: source: endogenous, on live N. meningitidis M08-240104 (UK104)

[5] = molecular target: T4, native fHbp v2.16 on live N. …; test: flow cytometry on cells; settings: one partner purified
[6] = molecular target: T2, factor H binding protein (fHbp) variant …; test: BLI; Octet 384 Red, 30 C; mAb 4B3 captured on Anti-Human Fc biosensors, wild type and mutant fHbp in solution, 150 nM to 1 nM, in 1 x PBS, 1% (w/v) BSA; triplicate; settings: both partners purified

B1: human anti-fHbp mAb 2G1 (antibody, V domains shown)
VH: QVQLVESGGDLVKPGGSLRLSCVASGFTFSSYTMNWVRQAPGKGLEWVSSITSSSSFTYYADSVKGRFIISRDNAKNSLSLQMNNLRVEDTATYYCARRKDSSDYDWYYYYGMDVWGLGTTVTVSS
VL: QSVLTQPPSVSAAPGQKVTISCSGSSSNIGDNYMSWYQQIPGTAPKLLIFDNDQRPSGIPDRFSASKSGTSATLDITGFQTGDEADYYCGTWDSGLSAPVFGGGTKLTVL
notes: IgG1; source: Expi293, transient transfection, purified (protein G Sepharose)
Work on B1 yielded a Kd [1] of 1.7 nM, a Kd [2] of 1.08 nM and a Kd [3] of 1.75 nM.

B2: human anti-fHbp mAb 1D1 (antibody, V domains shown)
VH: QVQLVGSGGGLVKPGGSLRLSCAASGFTFSSYTMNWVRQAPGKGLEWVSSISSSSGYIYYADSLKGRFTISRDDAKNSLFLQMNSLRAEDTAVYFCARDKVLPAPPGFYGLDVWGPGTTVTVSS
VL: QSVVTQPPSVSAAPGQKVTISCSGSSSNIEDNFVSWYQQLPGTAPKLLIYDNNQRPSGIPDRFSGSKSGTSATLGITGLQTGDEADYYCATWDNSLSARVFGGGTKLTVL
notes: as for B1
Work on B2 yielded a Kd [1] of 2.61 nM, a Kd [2] of 0.893 nM and a Kd [3] of 1.72 nM.

B3: human anti-fHbp mAb 3F1 (antibody, V domains shown)
VH: B2 VH with Q1E, Q3H, G6E, D74N
VL: B2 VL
notes: as for B1
For B3, the Kd [1] was 11.3 nM, the Kd [2] was 1.04 nM and the Kd [3] was 1.8 nM.

B4: human anti-fHbp mAb 5F12 (antibody, V domains shown)
VH: EVQLVESGGDLVKPGGSLRLSCAASGFTFSNYTMNWVRQAPGKGLEWVSSITSSSSFKYYADSVKGRFTISRDNAKNSVFLQMNSLRAEDTAIYYCARRIDSSDQDWFYYYGMDVWGLGTTVTVSS
VL: QSVLTQPPSVSAAPGQRVTISCSGSSSNIGDNYISWYQQLPGTAPKLLIYDNDQRPSGTPDRFSASKSGTSATLGVTGLQTGDEADYYCGTWDSSLNAPVFGSGTKVTVL
notes: as for B1
Work on B4 yielded a Kd [1] of 2.75 nM, a Kd [2] of 1.01 nM and a Kd [3] of 1.75 nM.

B5: human anti-fHbp mAb 2C8 (antibody, V domains shown)
VH: QVQLVQSGAEVKKPGSSVKVSCKASGGTVINYPISWVRQVPGQGLEWMGRLVPLFGTPNYGQKFQGRITITADKSTSAAYMELIGLKSEDTAVYYCARGDTAMAPFDYWGHGTLVTVSS
VL: QLVLTQPPSVSVAPGKTATITCGGNNVGGKTVHWYQQKPGQAPVLVMSYDSDRPSGIPERFSGSNSGNTATLTISRVEAEDEADYYCQVWHGNDDHWVFGGGTKLTVL
notes: as for B1
With B5 the Kd [1] was 0.0525 nM, the Kd [2] was 0.34 nM and the Kd [3] was 0.46 nM.

B6: human anti-fHbp mAb 5C6 (antibody, V domains shown)
VH: EVQLLESGGGLVQPGGSLRLSCAASGFTFSSYAMSWVRQTPGKGLEWVSAISGSGGSTYYADSVQGRFTISRDNSKNTLYLQINSLRAEDTAVYYCAKDPGFVLSSGWYYFDYWGQGTLVTVSS
VL: not shown
notes: as for B1
B6 was tested, and the Kd [1] was 1.7 nM, the Kd [2] was 1.08 nM and the Kd [3] was 2.03 nM. B6: binds [4].

B7: human anti-fHbp mAb 4F9 (antibody, V domains shown)
VH: QVQLVQSGGGLVKPGGSLRLSCAASGFPFSSYYMSWIRQAPGKGLEWVSDINNSGNVKEYADFVKGRLTISRDNVKNSMYLHMNSLRVEDTAVYYCARNRGRFDVWGQGTLVTVSA
VL: EIVMTQSPGTLSLSPGETATLSCRASQMISSPFLAWYQQRRGQAPRLLIYGASTRATDTPDRFRGSGSGTDFILTISRLEPEDFAVYYCQHYDDSPFTFGQGTKLEIK
notes: as for B1
Work on B7 yielded a Kd [1] of 0.0285 nM, a Kd [2] of 0.077 nM and a Kd [3] of 0.24 nM. B7: binds [5].

B8: human anti-fHbp mAb 3G7 (antibody, V domains shown)
VH: B7 VH with Q1E, V5L
VL: B7 VL with M4L, H91Y
notes: as for B1
B8 gave a Kd [1] of 0.0526 nM, a Kd [2] of 0.344 nM and a Kd [3] of 0.68 nM. B8: binds [5].

B9: human anti-fHbp mAb 4B3 (IgG1) (antibody, V domains shown)
VH: B7 VH
VL: B7 VL with H91Y
notes: as for B1
In the case of B9, the Kd [1] is reported as 0.029 nM, the Kd [2] is reported as 0.328 nM and the Kd [3] is reported as 0.633 nM. For the same binder, the binding result [5] was “binds” and the Kd [6] was 1.7 nM.
